# Laboratory results as given in paper PMC3460628.
# Tested on: T1, His-ChvI(D52E) D52E (Agrobacterium tumefaciens C58), ORF:0a874367
# T1 sequence: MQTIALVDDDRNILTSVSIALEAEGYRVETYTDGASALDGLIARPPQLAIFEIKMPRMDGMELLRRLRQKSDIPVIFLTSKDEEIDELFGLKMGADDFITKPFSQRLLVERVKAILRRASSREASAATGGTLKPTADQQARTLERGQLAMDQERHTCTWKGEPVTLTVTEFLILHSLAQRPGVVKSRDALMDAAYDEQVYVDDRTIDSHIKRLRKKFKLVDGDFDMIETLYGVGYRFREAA
# Assay: EMSA
row,Sequence,binding
1,TCCGCATCCATGGGAATAGCAGTCTTTCCCCACCTTGCCTCCACGCTGGAGCAGCTTTTCGACAGGGCAGACTATGCCCTCTACCACGCCAAGAAAACCCGGCGTGGCGATGCCGTTCTGTTCGATGCGGAACACGAAAAGCAGATCAATATCGAAGCCCGCATTGAGCATCTGCTCAAGCAGAGCGATCTGAAAAACGAACTTTCGGTGATGTTTCAGCCGATCGTGGATATACGCGACGGAAGGATC (double strand) [atu4353 coding region control fragment],no binding
2,"TCGAGGAGTAGTCTATCCCCAGAAAATAGTAATGGATTTTTTGTAGTTACTTCCCTTACGTGAGGCTATTAATCAGACAGACTTATTCAAAATGTGTCTAAATTGTGGCGTCTACTCCCTAATCTAATCTGATAAAAAATAAACTTCGGGGTGGACAACCCGGTTTCATCATCATAGTTATTCCACGTCACGTTGTGGAATGAACCCGGGCAGGAGGCTCATTGCATGTCGGTACCCC (double strand) [imp-hcp intergenic region (T6SS regulatory region), 230 bp]",binds
